The values that follow come from patent US20120316071A1 (published 2012).

Experiment [1] has as its target T1, rHuman Erythropoietin R/Fc Chimera, CF (human, UniProt P19235 25-250).
T1 construct: Bought from R&D Systems; also called EPO R; EPO R/Fc; not shown: Fc of the bought chimera
T1 sequence (looked up): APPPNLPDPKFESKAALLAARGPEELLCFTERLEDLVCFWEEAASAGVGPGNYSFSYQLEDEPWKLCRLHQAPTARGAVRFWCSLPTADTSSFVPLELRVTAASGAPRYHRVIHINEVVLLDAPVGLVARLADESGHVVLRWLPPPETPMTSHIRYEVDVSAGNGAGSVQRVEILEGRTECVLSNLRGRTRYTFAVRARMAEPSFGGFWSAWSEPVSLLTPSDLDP
Briefly: ECL Multispot (MSD) assay; antigen spotted on plate, Fab in solution.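 Also: fab bound 1 h at 20 °C, detected by TAG-labelled antibody electrochemiluminescence, signal relative to each well's blank, ratio of 4 or more marks a hit.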

Experiment [2] concerns the target T2, rHuman HGF R/c-MET/Fc Chimera, CF (human, UniProt P08581 25-932).
T2 construct: Bought from R&D Systems; also called HGF R/Fc; hepatocyte growth factor receptor; not shown: Fc of the bought chimera
The description is as above.

In experiment [3] the target is T3, rHuman ErbB2/Fc Chimera, CF (human, UniProt P04626 23-652).
T3 construct: Bought from R&D Systems; also called human epidermal growth factor 2 receptor; not shown: Fc of the bought chimera
The description is as above.

For experiment [4], the target named is T4, Recombinant Human DLL4 (human, UniProt Q9NR61 27-524).
T4 construct: Bought from R&D Systems; also called delta-like protein 4; rHuman DLL4
The experiment is described as above.

For experiment [5], the target named is T5, rHuman IGF-1 sR, (IGF-1 sR), CF (human, UniProt P08069 31-932).
T5 construct: Bought from R&D Systems; also called insulin-like growth factor-1 soluble receptor
Described as above.

For experiment [6], the target named is T6, rHuman P-Cadherin/Fc Chimera, CF (human, UniProt P22223 108-654).
T6 construct: Bought from R&D Systems; not shown: Fc of the bought chimera
The experiment is described as above.

Experiment [7] deals with T7, rHuman Notch-1/Fc Chimera, CF (human, UniProt P46531 19-526).
T7 construct: Bought from R&D Systems; not shown: Fc of the bought chimera
The experiment is described as above.

The target in experiment [8] is T8, rHuman CD44/Fc Chimera, CF (human, UniProt P16070 21-220).
T8 construct: Bought from R&D Systems; not shown: Fc of the bought chimera
Described as above.

Experiment [9] concerns the target T9, rHuman EGF R/Fc Chimera, CF (human, UniProt P00533 25-645).
T9 construct: Bought from R&D Systems; also called epidermal growth factor receptor; not shown: Fc of the bought chimera
Described as above.

For experiment [10], the target named is T10, rHuman IGF-1 sR, (IGF-1 sR), CF (R&D Systems Cat#391-GR) (human, UniProt P08069 31-932).
T10 construct: Bought recombinant soluble receptor; also called insulin-like growth factor-1 soluble receptor
As to the kind of experiment: ECL multispot (MSD) binding assay, antigen spotted on plate.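 Also: purified Fab incubated 1 h at 20 °C on antigen spots, detected with TAG-labelled antibody, electrochemiluminescence compared with each well's blank, signal-to-blank ratio ≥4 counted as hit.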

Experiment [11] concerns the target T11, rHuman EGF R/Fc Chimera, CF (R&D Systems Cat#344-ER) (human, UniProt P00533 25-645).
T11 construct: Bought recombinant protein; also called epidermal growth factor receptor
The experiment is described as above.

Experiment [12] has as its target T12, rHuman Erythropoietin R/Fc Chimera, CF (R&D Systems Cat#963-ER) (human, UniProt P19235 25-250).
T12 construct: Bought recombinant protein; also called EPO R; EPO R/Fc
T12 sequence (looked up): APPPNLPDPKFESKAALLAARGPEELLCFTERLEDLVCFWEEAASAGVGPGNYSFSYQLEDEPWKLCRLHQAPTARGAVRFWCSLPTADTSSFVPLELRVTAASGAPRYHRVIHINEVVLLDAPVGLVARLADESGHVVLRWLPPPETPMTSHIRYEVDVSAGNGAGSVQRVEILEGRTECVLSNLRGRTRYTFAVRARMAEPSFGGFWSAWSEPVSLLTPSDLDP
The experiment is described as above.

In experiment [13] the target is T13, rHuman ErbB2/Fc Chimera, CF (R&D Systems Cat#1129-ER) (human, UniProt P04626 23-652).
T13 construct: Bought recombinant protein; also called human epidermal growth factor 2 receptor
Described as above.

For experiment [14], the target named is T14, rHuman HGF R/c-MET/Fc Chimera, CF (R&D Systems Cat#358-MT/CF) (human, UniProt P08581 25-932).
T14 construct: Bought recombinant protein; also called HGF R/Fc; hepatocyte growth factor receptor
The description is as above.

For experiment [15], the target named is T15, rHuman CD44/Fc Chimera, CF (R&D Systems Cat#3660-CD) (human, UniProt P16070 21-220).
T15 construct: Bought recombinant protein
The description is as above.

Experiment [16] deals with T16, rHuman P-Cadherin/Fc Chimera, CF (R&D Systems Cat#861-PC) (human, UniProt P22223 108-654).
T16 construct: Bought recombinant protein
The experiment is described as above.

Experiment [17] deals with T17, Recombinant Human DLL4 (R&D Systems Cat#1506-D4/CF) (human, UniProt Q9NR61 27-524).
T17 construct: Bought recombinant protein; also called delta-like protein 4; rHuman DLL4
The experiment is described as above.

For experiment [18], the target named is T18, rHuman Notch-1/Fc Chimera, CF (R&D Systems Cat#3647-TK) (human, UniProt P46531 19-526).
T18 construct: Bought recombinant protein
Described as above.

T14 sequence (P08581 25-932, change not shown): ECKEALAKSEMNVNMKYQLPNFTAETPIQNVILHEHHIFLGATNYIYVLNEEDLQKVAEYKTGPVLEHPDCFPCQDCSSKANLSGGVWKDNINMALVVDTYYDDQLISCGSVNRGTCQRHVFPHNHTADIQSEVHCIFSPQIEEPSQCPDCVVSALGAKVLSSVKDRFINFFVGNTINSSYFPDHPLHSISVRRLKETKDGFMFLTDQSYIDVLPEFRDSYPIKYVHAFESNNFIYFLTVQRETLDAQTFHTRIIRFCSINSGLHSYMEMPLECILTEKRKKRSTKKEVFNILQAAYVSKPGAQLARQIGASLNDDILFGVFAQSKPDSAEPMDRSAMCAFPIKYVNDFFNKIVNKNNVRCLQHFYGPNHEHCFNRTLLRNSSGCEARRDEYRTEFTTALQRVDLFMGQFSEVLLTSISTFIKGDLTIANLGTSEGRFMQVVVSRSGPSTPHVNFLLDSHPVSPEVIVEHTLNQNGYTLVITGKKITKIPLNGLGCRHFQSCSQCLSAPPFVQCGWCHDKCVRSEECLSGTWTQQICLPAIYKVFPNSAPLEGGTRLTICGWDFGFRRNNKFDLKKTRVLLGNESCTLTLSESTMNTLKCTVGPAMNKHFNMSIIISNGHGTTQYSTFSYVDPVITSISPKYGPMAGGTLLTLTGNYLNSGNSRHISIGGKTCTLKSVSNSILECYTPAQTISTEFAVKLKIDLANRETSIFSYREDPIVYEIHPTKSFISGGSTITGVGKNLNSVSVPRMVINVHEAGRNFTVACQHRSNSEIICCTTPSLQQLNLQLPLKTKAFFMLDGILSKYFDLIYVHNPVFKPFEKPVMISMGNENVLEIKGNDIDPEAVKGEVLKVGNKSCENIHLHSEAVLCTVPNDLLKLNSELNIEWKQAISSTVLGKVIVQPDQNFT
T2 sequence (P08581 25-932, change not shown): as above

B1: Fab VH1-46_IGHD6-6*01_IGHJ1*01 S102A/S103P/S104F/H111F (APFF) & L6_IGKJ1*01 S28V (Fab, V domains shown)
VH: QVQLVQSGAEVKKPGASVKVSCKASGYTFTSYYMHWVRQAPGQGLEWMGIINPSGGSTSYAQKFQGRVTMTRDTSTSTVYMELSSLRSEDTAVYYCAREEYAPFSAEYFQFWGQGTLVTVSS
VL: EIVLTQSPATLSLSPGERATLSCRASQVVSSYLAWYQQKPGQAPRLLIYDASNRATGIPARFSGSGSGTDFTLTISSLEPEDFAVYYCQQRSNWPPWTFGQGTKVEIKR
notes: Fab made in E. coli; the variable domains were cloned into Plasmid A (CH1, His and Flag tags) and Plasmid C (kappa CL); also called APFF / S28V
In the case of B1, the ECL signal came to 446 in experiment [1]; 338 in experiment [2]; 231 in experiment [3]; 83100 in [4]; 284 in experiment [5]; 344 in [6]. Moreover, the ECL signal in experiment [7] worked out at 289; in [8], 380; in [9], 327.

B2: Fab VH1-46_IGHD6-6*01_IGHJ1*01 S102A/S103P/S104F/H111F (APFF) & L6_IGKJ1*01 S31H (Fab, V domains shown)
VH: QVQLVQSGAEVKKPGASVKVSCKASGYTFTSYYMHWVRQAPGQGLEWMGIINPSGGSTSYAQKFQGRVTMTRDTSTSTVYMELSSLRSEDTAVYYCAREEYAPFSAEYFQFWGQGTLVTVSS
VL: EIVLTQSPATLSLSPGERATLSCRASQSVSHYLAWYQQKPGQAPRLLIYDASNRATGIPARFSGSGSGTDFTLTISSLEPEDFAVYYCQQRSNWPPWTFGQGTKVEIKR
notes: Tested as Fab (CH1 with His6/Flag tags, kappa CL) made in E. coli; also called APFF / S31H
As to B2, the ECL signal in [10] turned out to be 350; in experiment [11], 373; in experiment [12], 504; in experiment [13], 307; in experiment [14] it was 352; in experiment [15], 426. Further, the ECL signal in [16] came out at 480; in [17], 221000; in experiment [18] it was 421.

B3: Fab VH1-46_IGHD6-6*01_IGHJ1*01 S102A/S103P/S104F/H111F (APFF) & L6_IGKJ1*01 S31F (Fab, V domains shown)
VH: QVQLVQSGAEVKKPGASVKVSCKASGYTFTSYYMHWVRQAPGQGLEWMGIINPSGGSTSYAQKFQGRVTMTRDTSTSTVYMELSSLRSEDTAVYYCAREEYAPFSAEYFQFWGQGTLVTVSS
VL: EIVLTQSPATLSLSPGERATLSCRASQSVSFYLAWYQQKPGQAPRLLIYDASNRATGIPARFSGSGSGTDFTLTISSLEPEDFAVYYCQQRSNWPPWTFGQGTKVEIKR
notes: Tested as Fab (CH1 with His6/Flag tags, kappa CL) made in E. coli; also called APFF / S31F
Regarding B3, the ECL signal in [10] is 267; in experiment [11], 342; in experiment [12], 599; in experiment [13], 295; in [14], 280; in experiment [15], 256. For the same molecule, the ECL signal in experiment [16] is 369; in [17], 189000; in experiment [18] it was 349.

B4: Fab VH1-46_IGHD6-6*01_IGHJ1*01 S102A/S103P/S104F/H111F (APFF) & L6_IGKJ1*01 S31P (Fab, V domains shown)
VH: QVQLVQSGAEVKKPGASVKVSCKASGYTFTSYYMHWVRQAPGQGLEWMGIINPSGGSTSYAQKFQGRVTMTRDTSTSTVYMELSSLRSEDTAVYYCAREEYAPFSAEYFQFWGQGTLVTVSS
VL: EIVLTQSPATLSLSPGERATLSCRASQSVSPYLAWYQQKPGQAPRLLIYDASNRATGIPARFSGSGSGTDFTLTISSLEPEDFAVYYCQQRSNWPPWTFGQGTKVEIKR
notes: Tested as Fab (CH1 with His6/Flag tags, kappa CL) made in E. coli; also called APFF / S31P
For B4, the ECL signal in experiment [10] was found to be 404; in experiment [11], 488; in experiment [12], 594; in experiment [13], 372; in [14] it was 431; in experiment [15], 466. The ECL signal is 493 in [16], 53300 in [17] and 461 in experiment [18].

B5: Fab VH1-46_IGHD6-6*01_IGHJ1*01 S102A/S103P/S104F/H111F (APFF) & L6_IGKJ1*01 S31D (Fab, V domains shown)
VH: QVQLVQSGAEVKKPGASVKVSCKASGYTFTSYYMHWVRQAPGQGLEWMGIINPSGGSTSYAQKFQGRVTMTRDTSTSTVYMELSSLRSEDTAVYYCAREEYAPFSAEYFQFWGQGTLVTVSS
VL: EIVLTQSPATLSLSPGERATLSCRASQSVSDYLAWYQQKPGQAPRLLIYDASNRATGIPARFSGSGSGTDFTLTISSLEPEDFAVYYCQQRSNWPPWTFGQGTKVEIKR
notes: Tested as Fab (CH1 with His6/Flag tags, kappa CL) made in E. coli; also called APFF / S31D
Regarding B5, the ECL signal in experiment [10] is 407; in experiment [11] it was 438; in [12] it was 596; in experiment [13] it was 479; in experiment [14], 429; in experiment [15], 471. Further, the results for the ECL signal in [16], in experiment [17] and in [18] were 451, 154000 and 510, respectively.

B6: Fab VH1-46_IGHD6-6*01_IGHJ1*01 S102A/S103P/S104F/H111F (APFF) & L6_IGKJ1*01 S31M (Fab, V domains shown)
VH: QVQLVQSGAEVKKPGASVKVSCKASGYTFTSYYMHWVRQAPGQGLEWMGIINPSGGSTSYAQKFQGRVTMTRDTSTSTVYMELSSLRSEDTAVYYCAREEYAPFSAEYFQFWGQGTLVTVSS
VL: EIVLTQSPATLSLSPGERATLSCRASQSVSMYLAWYQQKPGQAPRLLIYDASNRATGIPARFSGSGSGTDFTLTISSLEPEDFAVYYCQQRSNWPPWTFGQGTKVEIKR
notes: Tested as Fab (CH1 with His6/Flag tags, kappa CL) made in E. coli; also called APFF / S31M
B6: the ECL signal in experiment [10] turned out to be 445; in experiment [11] it was 380; in experiment [12], 573; in [13], 352; in [14], 293; in experiment [15], 488. For the same molecule, the ECL signal in experiment [16] worked out at 510; in experiment [17], 167000; in [18], 474.

B7: Fab VH1-46_IGHD6-6*01_IGHJ1*01 S102A/S103P/S104F/H111F (APFF) & L6_IGKJ1*01 S31I (Fab, V domains shown)
VH: QVQLVQSGAEVKKPGASVKVSCKASGYTFTSYYMHWVRQAPGQGLEWMGIINPSGGSTSYAQKFQGRVTMTRDTSTSTVYMELSSLRSEDTAVYYCAREEYAPFSAEYFQFWGQGTLVTVSS
VL: EIVLTQSPATLSLSPGERATLSCRASQSVSIYLAWYQQKPGQAPRLLIYDASNRATGIPARFSGSGSGTDFTLTISSLEPEDFAVYYCQQRSNWPPWTFGQGTKVEIKR
notes: Tested as Fab (CH1 with His6/Flag tags, kappa CL) made in E. coli; also called APFF / S31I
In the case of B7, the ECL signal in [10] stood at 365; in experiment [11], 363; in experiment [12] it was 500; in experiment [13], 222; in [14], 303; in experiment [15], 506. Further, the ECL signal is 444 in experiment [16], 174000 in experiment [17] and 421 in experiment [18].

B8: Fab VH1-46_IGHD6-6*01_IGHJ1*01 S102A/S103P/S104F/H111F (APFF) & L6_IGKJ1*01 S31L (Fab, V domains shown)
VH: QVQLVQSGAEVKKPGASVKVSCKASGYTFTSYYMHWVRQAPGQGLEWMGIINPSGGSTSYAQKFQGRVTMTRDTSTSTVYMELSSLRSEDTAVYYCAREEYAPFSAEYFQFWGQGTLVTVSS
VL: EIVLTQSPATLSLSPGERATLSCRASQSVSLYLAWYQQKPGQAPRLLIYDASNRATGIPARFSGSGSGTDFTLTISSLEPEDFAVYYCQQRSNWPPWTFGQGTKVEIKR
notes: Tested as Fab (CH1 with His6/Flag tags, kappa CL) made in E. coli; also called APFF / S31L
With B8, the ECL signal in [10] was determined as 405; in [11], 375; in [12], 427; in experiment [13], 288; in experiment [14], 319; in [15], 371. The ECL signal was determined as 346 in [16], 155000 in [17] and 365 in experiment [18].
